Values belong to the binder of their own block, whether it stands above or below them.
Tests used:
[1] = molecular target: peptide with N-terminal phosphotyrosine; test: biolayer interferometry (Blitz), peptide-coated sensor, NAAB in 1x PBS, 1:1 fit, kd/ka
Leu = molecular target: T1, Leu; test: single-molecule TIRF, Cy5-labelled protein on peptide immobilized on nanogel
T1 sequence (peptide): LGMMGSSC

- Kd [1]: 1.07 µM
B1: Phosphotyrosine NAAB (designed binder)
chain: MDEFEMIKRNTSEIISELREVLKKDEKSALIGFEPSGKIHLGHYLQKKMIDLQNAGFDIIIPLADLHAYLNQKGELDEIRKIGDYNKKVFEAMLKAKYVYGSEFQLDKYTLNVYRLALKTTLKARRSMELIAREDENPVAEVIYPIMQVNGCHYKGVDVAVGGMEQRKIMLARELLPKKVVCIHPVLTGLDGEGKMSSSGNFIAVDDSPEEIRAFKKAYCPAGVVEGNPEIAKYFLEYPLTIKPEKFGGDLTVNSYEESLFKNKELHPMDLKAVAEELIKILEPIRK

- Counts (Leu): 49 counts
B2: engineered MetRS domain (Met NAAB), GST-MetRS fusion labeled with Cy5 (designed binder, not shown: a dimerising Fc or GST)
chain: AKKILVTCASPYANGSIHLGHMLEHIQADVWVRYQRMRGHEVNFICADDAHGTPIMLKAQQLGITPEQMIGEMSQEHQTDFAGFNISYDNYHSTHSEENRQLSELIYSRLKENGFIKNRTISQLYDPEKGMFLPDRFVKGTCPKCKSPDQYGDNCEVCGATYSPTELIEPKSVVSGATPVMRDSEHFFFDLPSFSEMLQAWTRSGALQEQVANKMQEWFESGLQQWDISRDAPYFGFEIPNAPGKYFYVWLDAPIGLMGSFKNLCDKRGDSVSFDEYWKKDSTAELYHFIGKGIVYFLSLFWPAMLEGSNFRKPSNLFVHGYVTVNGAKMSKSRGTFIKASTWLNHFDADSLRYYYTAKLSSRIDDIDLNLEDFVQRVNADIVNKVVNLASRNAGFINKRFDGVLASELADPQLYKTFTDAAEVIGEAWESREFGKAVREIMALADLANRYVDEQAPWVVAKQEGRDADLQAICSMGINLFRVLMTYLKPVLPKLTERAEAFLNTELTWDGIQQPLLGHKVNPFKALYNRIDMRQVEALVEASK
modifications: Cy5 fluorophore on lysine side chains
